From patent publication US20030124119A1 (published 2003) come the findings set out here.

Substitutions are numbered along the chain they refer to.

B1: humanized #23-57-137-1 antibody having L-chain version “s” (H-chain version “a”) (antibody, V domains shown)
VH: QVQLVESGGGVVQPGRSLRLSCAASGFTFSSYGMSWVRQAPGKGLEWVATISSGGSYTYYPDSVKGRFTISRDNSKNTLYLQMNSLRAEDTAVYYCARQTTMTYFAYWGQGTLVTVSS
VL: QLVLTQSPSASASLGASVKLTCTLSSQHSTYTIEWYQQQPEKGPKYVMDLKQDGSHSTGDGIPDRFSGSSSGAERYLTISSLQSEDEADYICGVGDTIKEQFVYVFGGGTKLTVLG
notes: also called hMBC1Lsλ
B2: mouse FR1,2/human FR3,4 hybrid antibody (L-chain m/hMBC1Ldλ, H-chain hMBC1HcDNA) (antibody, V domains shown)
VH: B1 VH
VL: QLVLTQSSSASFSLGASAKLTCTLSSQHSTYTIEWYQQQPLKPPKYVMDLKQDGSHSTGDGIPDRFSGSSSGAERYLTISSLQSEDEADYICGVGDTIKEQFVYVFGGGTKLTVL
notes: Human Cγ1 and human λ C-regions
B3: humanized #23-57-137-1 antibody having L-chain version “t” (H-chain version “a”) (antibody, V domains shown)
VH: B1 VH
VL: B1 VL with K45R
notes: Human Cγ1 and human λ C-regions; also called hMBC1Ltλ
B4: humanized #23-57-137-1 antibody having L-chain version “l” (H-chain version “a”) (antibody, V domains shown)
VH: B1 VH
VL: B1 VL with I91Y
notes: Human Cγ1 and human λ C-regions; also called hMBC1Llλ
B5: mouse FR1,2/human FR3,4 hybrid antibody (L-chain m/hMBC1Laλ, H-chain hMBC1HcDNA) (antibody, V domains shown)
VH: B1 VH
VL: B2 VL with I91Y
notes: as for B2
B6: antibody having both a humanized H-chain version “a” and a chimeric L-chain (antibody, V domains shown)
VH: B1 VH
VL: QLVLTQSSSASFSLGASAKLTCTLSSQHSTYTIEWYQQQPLKPPKYVMDLKQDGSHSTGDGIPDRFSGSSSGADRYLSISNIQPEDEAMYICGVGDTIKEQFVYVFGGGTKVTVLG
notes: Human Cγ1 H-chain C-region
B7: humanized #23-57-137-1 antibody having L-chain version “q” (H-chain version “a”) (antibody, V domains shown)
VH: B1 VH
VL: B1 VL with V47L
notes: Human Cγ1 and human λ C-regions; also called hMBC1Lqλ
B8: humanized #23-57-137-1 antibody having L-chain version “j” (H-chain version “a”) (antibody, V domains shown)
VH: B1 VH
VL: B1 VL with V47L, I91Y
notes: Human Cγ1 and human λ C-regions; also called hMBC1Ljλ
B9: humanized #23-57-137-1 antibody having L-chain version “o” (H-chain version “a”) (antibody, V domains shown)
VH: B1 VH
VL: B1 VL with K45R, I91Y
notes: Human Cγ1 and human λ C-regions; also called hMBC1Loλ
B10: human FR1/mouse FR2,3,4 hybrid antibody (L-chain hmmMBC1L(λ), H-chain hMBC1HcDNA) (antibody, V domains shown)
VH: B1 VH
VL: B2 VL with S8P, F12A, A18V, E74D, T78S, S81N, L82I, S84P, D89M, L112V
notes: Human Cγ1 and human λ C-regions; also called FR1/FR2 hybrid antibody
B11: humanized #23-57-137-1 antibody having L-chain version “r” (H-chain version “a”) (antibody, V domains shown)
VH: B1 VH
VL: B1 VL with K45R, V47L
notes: also called hMBC1Lrλ
B12: humanized #23-57-137-1 antibody having L-chain version “m” (H-chain version “a”) (antibody, V domains shown)
VH: B1 VH
VL: B1 VL with K45R, V47L, I91Y
notes: Human Cγ1 and human λ C-regions; also called hMBC1Lmλ
B13: chimeric #23-57-137-1 antibody with L-chain λ chain C-region (antibody, V domains shown)
VH: EVQLVESGGDLVKPGGSLKLSCAASGFTFSSYGMSWIRQTPDKRLEWVATISSGGSYTYYPDSVKGRFTISRDNAKNTLYLQMSSLKSEDTAMFYCARQTTMTYFAYWGQGTLVTVSA
VL: B6 VL
notes: expressed in COS-7 cells; also called chimeric antibody; MBC1HcDNA/pCOS1 and MBC1L(λ)/neo
B14: chimeric #23-57-137-1 antibody with L-chain κ chain C-region (antibody, V domains shown)
VH: B13 VH
VL: B6 VL
notes: Mouse V-regions with human Cγ1 H-chain C-region and human κ C-region; expressed in COS-7 cells; also called chimeric antibody; MBC1HcDNA/pCOS1 and MBC1L(κ)/neo
B15: mouse monoclonal antibody #23-57-137-1 against human PTHrP (1-34) (antibody, V domains shown)
VH: B13 VH
VL: B6 VL
notes: Mouse antibody from the hybridoma (FERM BP-5631); mouse λ L-chain; tested as hybridoma culture supernatant

The first test deals with T1, human PTHrP (1-34) (human).
T1 construct: Coated on ELISA plates (Peptide Research Institute) and used in RIA screening and the cAMP assay
Kind of test: ELISA, plate coated with 1 µg/ml human PTHrP (1-34). As for the experimental part: An ELISA plate for the determination of antigen-binding ability was prepared as follows. Each well of a 96-well ELISA plate was coated with 100 μl of a coating buffer supplemented with 1 μg/ml of human PTHrP (1-34) (Peptide Research Institute), and then blocked with 200 μl of a dilution buffer. Each well was added with each of the serial dilutions of the COS-7 cell culture supernatant in which each of the chimeric antibodies had been expressed, or added with each of the serial dilutions of each of the chimeric antibodies per se in a purified form. After the plate was incubated at room temperature and washed with PBS-Tween 20, each well of the plate was added with 100 μl of a solution of alkaline phosphatase-conjugated goat anti-human IgG antibodies (TAGO). After the plate was incubated at room temperature and washed with PBS-Tween 20, each well of the plate was added with 1 mg/ml of a substrate solution (“Sigma 104”, p-nitrophenylphosphoric acid, SIGMA). The solution was measured on its absorbance at 405 nm using Microplate Reader (Bio Rad).
An ELISA plate for determining antigen-binding ability was prepared as follows. Each well of a 96-well ELISA plate (Maxisorp, NUNC) was coated with 100 μl of a coating buffer containing 1 μg/ml of human PTHrP (1-34) and then blocked with 200 μl of a dilution buffer. Subsequently, each well was added with each of the serial dilutions of the COS-7 cell culture supernatant in which each of the hybrid antibodies and humanized antibodies was expressed, or added with each of the serial dilutions of each of the hybrid antibodies and humanized antibodies in a purified form. The plate was incubated at room temperature and washed with PBS-Tween 20. Subsequently, each well was added with 100 μl of alkaline phosphatase-conjugated goat anti-human IgG antibody (TAGO). The plate was incubated at room temperature and washed with PBS-Tween 20. Subsequently, each well was added with 1 mg/ml of a substrate solution (“Sigma 104”, p-nitrophenylphosphoric acid, SIGMA). The solution was measured on its absorbance at 405 nm using Microplate Reader (Bio Rad).
(An ELISA detects its analyte on a solid surface through an enzyme-linked reagent.)
As to B1, the binding result was “binds”.

Take B2: the binding result is listed as “binds”.

On to B3, for which the binding result is “binds”.

For the molecule B4, the binding result is given as “binds”.

As to B5, the binding result was “binds”.

On to B6, for which the binding result is given as “binds”.

As to B7, the binding result is listed as “binds”.

Consider B8, for which the binding result was “binds”.

On to B9, for which the binding result is listed as “binds”.

Take B10: the binding result is on record as “binds”.

For B11, the binding result is “binds”.

Regarding B12, the binding result is given as “binds”.

As to B13, the binding result is “binds”.

B14: the binding result was “binds”.

The next test deals with T1, human PTHrP (1-34). Kind of test: solid phase RIA of hybridoma culture supernatants. Here is the method: The screening of hybridomas was performed by determining the presence of PTHrP-recognition antibodies in the culture supernatant of the wells in which cell growth had been observed in HAT medium, by solid phase RIA method. The hybridomas were collected from the wells in which the binding ability to the PTHrP-recognition antibodies had been confirmed. The hybridomas thus obtained was suspended into RPMI-1640 medium containing 15% FCS supplemented with OPI-supplement (Sigma), followed by unification of the hybridomas by limiting dilution method.
B15: the binding result is “binds”.
